Experimental data published in US20210009993A1 (ROCHE DIAGNOSTICS OPERATIONS, published 2021).
Changes are numbered by the printed parent chain. In names and notes the source's numbering stands. Each block holds one binder with its values, some of them ahead of it.

Target: T1, human cardiac troponin T (cTnT) (human, UniProt P45379 2-298)
T1 construct: also called Recombinant human TnT (Roche, 37 kDa)
Assay: SPR, Biacore T200, 37 C; Fab captured via anti-human F(ab')2, cTnT analyte
Method: Detailed kinetic investigations were performed at 37° C. on a GE Healthcare T200 instrument. A Biacore CM-5 series S sensor was mounted into the instrument and was preconditioned according to the manufacturer's instructions. The system buffer was HBS-ET (10 mM HEPES (pH 7.4), 150 mM NaCl, 1 mM EDTA, 0.05% (w/v) Tween® 20). The sample buffer was the system buffer supplemented with 1 mg/ml CMD (Carboxymethyldextran, Fluka). In one embodiment an anti-human antibody capture system was established on the CMS biosensor. GAHF(ab′)2, (goat anti human F(ab′)2) (Code Nr.: 109-005-097, lot #13.12.2005, Jackson Immuno Research) was immobilized according to the manufacturer's instructions using NHS/EDC chemistry. 30 μg/ml GAHF(ab′)2 in 10 mM sodium acetate buffer (pH 5.0) were preconcentrated to the flow cells 1, 2, 3 and 4 and were immobilized with 10.000 RU GAHF(ab′)2. The sensor was subsequently saturated with 1 M ethanolamine pH 8.5.
Chimeric anti-TnT antibody fragments were periplasmatically expressed in E. coli cells as described and were lyzed by methods known (for technical details see: Andersen, D. C. & Reilly, D. E. (2004); Production technologies for monoclonal antibodies and their fragments. Curr Opin Biotechnol 15, 456-62). The lysates were diluted 1:20 in sample buffer. Fab fragments were captured via their humanized framework regions from the expression lysates on the biosensor at a flow rate of 10 μl/min for 1 min followed by a 2 min washing step with 10-fold concentrated HBS-EP buffer at 30 μl/min. The Fab fragment capture level (CL) in response units (RU) was monitored. Recombinant human TnT (Roche, 37 kDa) was diluted in sample buffer at 90 nM and a concentration series was produced with […], 30 nM, 11 nM, 3.3 nM, 1.1 nM, 0 nM, 3.3 nM TnT concentration. The analyte concentration series were 80 μl/min for 3 min association phase and the dissociation phase was monitored for 3 min.
The kinetic parameters ka [1/Ms], kd [1/s], t1/2 diss [min], KD [M] and the binding stoichiometry (Molar Ratio) (for details see: Schraeml, M. & Biehl, M. (2012); Kinetic screening in the antibody development process. Methods Mol Biol 901, 171-81.) of the cTnT analyte were determined for each Fab fragment mutant with the Biaevaluation Software (GE healthcare) according to the manufacturer's instructions.

Kd: 0.61 nM
B1: anti-cTnT Fab fragment, CDR combination 1 (Y34F) (Fab, V domains shown)
VH: EVQLQQSGPELVKPGASVKMSCKASGYTFTDYFMKWVKQSHGKSLEWIGDINPNNGETFYNQKFKDKATLTVDKSSSTAYMQLNSLTSEDSAVYYCATRVFDYWGQGTTLTVSS
VL: DIVLTQSPASLAVSLGQRATISCKASQSVDYDGTSYMNWFQQKAGQPPKRLIYAASNLESGIPARFSGRGSGTDFALNIHPVEEEDAATYYCQQSNEDPYTFGGGTKLEIKR
notes: tested from E. coli lysate; also called mutant 1

t/2-diss: 3 min
B2: anti-cTnT Fab fragment, CDR combination 21 (F60W, V101Y) (Fab, V domains shown)
VH: B1 VH with F33Y, F59W, V100Y
VL: B1 VL
notes: tested from E. coli lysate; also called mutant 21

Kd: 0.48 nM
B3: anti-cTnT Fab fragment, CDR combination 19 (Y104F) (Fab, V domains shown)
VH: B1 VH with F33Y, Y103F
VL: B1 VL
notes: tested from E. coli lysate; also called mutant 19

MR (Molar Ratio): 0.6
B4: anti-cTnT Fab fragment, CDR combination 9 (Y34I) (Fab, V domains shown)
VH: B1 VH with F33I
VL: B1 VL
notes: tested from E. coli lysate; also called mutant 9
